Data from PMC9571070, “Three-Fluorophore FRET Enables the Analysis of Ternary Protein Association in Living Plant Cells” (Plants, 2022).

Biological target: T1, Receptor-Like Protein 44 fused to monomeric Turquoise 2 (RLP44-mTRQ2) (UniProt Q9M2Y3 25-274)
T1 construct: Receptor-Like Protein 44 (RLP44); Plasma membrane protein with its own signal peptide; also called RLP44-TRQ2; source: N. benthamiana epidermal leaf cells, transiently transformed, in living cells; not shown: mTRQ2, C-terminal, kept
T1 sequence (looked up): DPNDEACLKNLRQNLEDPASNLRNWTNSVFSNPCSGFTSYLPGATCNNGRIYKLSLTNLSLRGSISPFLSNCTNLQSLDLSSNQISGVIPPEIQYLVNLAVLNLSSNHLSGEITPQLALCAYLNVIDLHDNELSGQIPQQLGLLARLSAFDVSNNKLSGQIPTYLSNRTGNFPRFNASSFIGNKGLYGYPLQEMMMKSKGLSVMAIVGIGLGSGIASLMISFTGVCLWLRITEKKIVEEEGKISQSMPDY
Test: FRET or BRET; FRET-FLIM, fluorescence lifetime of the donor RLP44-mTRQ2 (440 nm pulsed laser, TCSPC), two fusion proteins co-expressed, plasma membrane of living N. benthamiana epidermal leaf cells
Details: partners not purified

- fluorescence lifetime of the donor RLP44-mTRQ2 (donor alone about 3.99 ns): 3.54 ns
B1: BRI1 Associated Kinase 1 fused to monomeric red fluorescence protein 1 (BAK1-mRFP) (receptor, UniProt Q94F62 26-615, looked up)
chain: NAEGDALSALKNSLADPNKVLQSWDATLVTPCTWFHVTCNSDNSVTRVDLGNANLSGQLVMQLGQLPNLQYLELYSNNITGTIPEQLGNLTELVSLDLYLNNLSGPIPSTLGRLKKLRFLRLNNNSLSGEIPRSLTAVLTLQVLDLSNNPLTGDIPVNGSFSLFTPISFANTKLTPLPASPPPPISPTPPSPAGSNRITGAIAGGVAAGAALLFAVPAIALAWWRRKKPQDHFFDVPAEEDPEVHLGQLKRFSLRELQVASDNFSNKNILGRGGFGKVYKGRLADGTLVAVKRLKEERTQGGELQFQTEVEMISMAVHRNLLRLRGFCMTPTERLLVYPYMANGSVASCLRERPESQPPLDWPKRQRIALGSARGLAYLHDHCDPKIIHRDVKAANILLDEEFEAVVGDFGLAKLMDYKDTHVTTAVRGTIGHIAPEYLSTGKSSEKTDVFGYGVMLLELITGQRAFDLARLANDDDVMLLDWVKGLLKEKKLEALVDVDLQGNYKDEEVEQLIQVALLCTQSSPMERPKMSEVVRMLEGDGLAERWEEWQKEEMFRQDFNYPTHHPAVSGWIIGDSTSQIENEYPSGPR
notes: BRI1 Associated Kinase 1 (BAK1), co-receptor kinase; also called BAK1-RFP; source: N. benthamiana epidermal leaf cells, transiently transformed, in living cells; not shown: mRFP, C-terminal, kept
